Experimental findings from patent US20210300999A1 are described below.

Common to all, as to settings: remark: other sources report otherwise
The target in experiment [1] is SARS-CoV Spike trimer (Table A) (SARS-CoV), P59594. The experiment can be described thus: ELISA, purified IgG.
Experiment [2] concerns the target SARS-CoV-2 RBD (Table A) (SARS-CoV-2), P0DTC2. As to the kind of experiment: ELISA, purified IgG.
Experiment [3] deals with SARS-CoV-2 S receptor-binding domain (SRBD), residues 319-541 (SARS-CoV-2), P0DTC2. As to the kind of experiment: ELISA on coated antigen.

B1: COV2-2130 (antibody, V domains shown)
VH: EVQLVESGGGLVKPGGSLRLSCAASGFTFRDVWMSWVRQAPGKGLEWVGRIKSKIDGGTTDYAAPVKGRFTISRDDSKNTLYLQMNSLKTEDTAVYYCTTAGSYYYDTVGPGLPEGKFDYWGQGTLVTVSS
VL: not shown
In experiment [1], B1 came in with an ELISA OD 450 nm of 0.1 OD 450 nm.

B2: COV2-2952 (antibody, V domains shown)
VH: EVQLVESGGGLVQPGGSLRLSCAASGLTVRSNYMTWVRQTPGKGLEWVSVIYSGGSTFYADSVKGRFTISRDNSKNTVYLQMNSLRAEDTAVYYCARDLVTYGLDVWGQGTTVTVSS
VL: DIQLTQSPSFLSASVGDRVTITCRASQGISNYLAWYQQKPGTAPNLLIYAASTLQSGVPSRFSGSGSGTEFTLTISSLQPEDFATYYCQLLNSHPLTFGQGTRLEIK
Turning to B2, the ELISA OD 450 nm worked out at 3.55 OD 450 nm in experiment [2] and 0.15 OD 450 nm in experiment [1].

B3: COV2-2165 (antibody, V domains shown)
VH: EVQLVESGGGLVQPGGSLRLSCAASGLTVRSNYMTWVRQTPGKGLEWVSVIYSGGSTFYADSVKGRFTISRDNSKNTVYLQMNSLRAEDTAVYYCARDLVTYGLDVWGQGTTVTVSS
VL: DIQLTQSPSFLSASVGDRVTITCRASQGISNYLAWYQQKPGTAPNLLIYAASTLQSGVPSRFSGSGSGTEFTLTISSLQPEDFATYYCQLLNSHPLTFGQGTRLEIK
In the case of B3, the EC50 in experiment [3] was 0.6 ng/mL. Further, the ELISA OD 450 nm is 4.2 OD 450 nm in experiment [2] and 0.17 OD 450 nm in experiment [1].

B4: COV2-2391 (antibody, V domains shown)
VH: QVQLVQSGAEVKKPGASVKVSCKASGYTFGSFDINWVRQATGQGLEWMGRMNSNSGNTAYAQKFQGRVTMTRDTSTNTAYMELSSLRSEDTAMYYCARMRSGWPTHGRPDDFWGRGTLVTVSS
VL: QSVLTQAPSASGTPGQRVTISCSGSNSNIGSYTINWYQQLPGTAPKLLIYGNDQRTSGVPDRFSGSKFGTSASLAISGLQSEDENNYYCAVWDDSLNGLVFGGGTKLTVL
In the case of B4, the ELISA OD 450 nm in experiment [2] was 3.65 OD 450 nm; in experiment [1], 0.1 OD 450 nm.

B5: COV2-2096 (antibody, V domains shown)
VH: QVQLVQSGAEVKKPGASVKVSCKASGYTFGSFDINWVRQATGQGLEWMGRMNSNSGNTAYAQKFQGRVTMTRDTSTNTAYMELSSLRSEDTAMYYCARMRSGWPTHGRPDDFWGRGTLVTVSS
VL: QSVLTQAPSASGTPGQRVTISCSGSNSNIGSYTINWYQQLPGTAPKLLIYGNDQRTSGVPDRFSGSKFGTSASLAISGLQSEDENNYYCAVWDDSLNGLVFGGGTKLTVL
B5: the EC50 in experiment [3] came to 1 ng/mL. Besides, the ELISA OD 450 nm worked out at 4.3 OD 450 nm in experiment [2] and 0.11 OD 450 nm in experiment [1].
